{
  "source": "paper PMC9086285",
  "about": "“Catalytic Features and Thermal Adaptation Mechanisms of a Deep Sea Bacterial Cutinase-Type Poly(Ethylene Terephthalate) Hydrolase” (Frontiers in Bioengineering and Biotechnology, 2022)",
  "proteins": {"B1": {"name": "ICCG (unidentified prokaryotic organism; D238C/F243I/S283C/Y127G) (protein)", "chain": "SNPYQRGPNPTRSALTADGPFSVATYTVSRLSVSGFGGGVIYYPTGTSLTFGGIAMSPGYTADASSLAWLGRRLASHGFVVLVINTNSRFDGPDSRASQLSAALNYLRTSSPSAVRARLDANRLAVAGHSMGGGGTLRIAEQNPSLKAAVPLTPWHTDKTFNTSVPVLIVGAEADTVAPVSQHAIPFYQNLPSTTPKVYVELCNASHIAPNSNNAAISVYTISWMKLWVDNDTRYRQFLCNVNDPALCDFRTNNRHCQ", "notes": "quadruple variant of LCC; only D238C/S283C given, the other two changes (F243I, Y127G) known from Tournier et al. 2020; expression construct not described; PDB 6THT given as the ICCG structure used for modelling"}, "B2": {"name": "IsPETase (Pseudideonella sakaiensis) (protein)", "chain": "QTNPYARGPNPTAASLEASAGPFTVRSFTVSRPSGYGAGTVYYPTNAGGTVGAIAIVPGYTARQSSIKWWGPRLASHGFVVITIDTNSTLDQPSSRSSQQMAALRQVASLNGTSSSPIYGKVDTARMGVMGWSMGGGGSLISAANNPSLKAAAPQAPWDSSTNFSSVTVPTLIFACENDSIAPVNSSALPIYDSMSRNAKQFLEINGGSHSCANSGNSNQALIGKKGVAWMKRFMDNDTRYSTFACENPNSTRVSDFRTANCS", "notes": "purified enzyme; expression construct not described"}, "B3": {"name": "MtCut (Marinactinospora thermotolerans DSM 45154) (protein)", "chain": "NPYERGPAPTESSVTAVRGYFDTDTDTVSSLVSGFGGGTIYYPTDTSEGTFGGVVIAPGYTASQSSMAWMGHRIASQGFVVFTIDTITRYDQPDSRGRQIEAALDYLVEDSDVADRVDGNRLAVMGHSMGGGGTLAAAENRPELRAAIPLTPWHLQKNWSDVEVPTMIIGAENDTVASVRTHSIPFYESLDEDLERAYLELDGASHFAPNISNTVIAKYSISWLKRFVDEDERYEQFLCPPPDTGLFSDFSDYRDSCPHTT", "notes": "786 bp fragment, signal peptide removed, C-terminal His6 (pET22b(+), NdeI/XhoI), E. coli BL21(DE3), 34 kDa"}},
  "key": {"[1]": {"substrate": "O=C(O)c1ccc(C(=O)OCCO)cc1", "experiment": "HPLC substrate reduction, Michaelis-Menten fit", "format": "biochemical, unidentified prokaryotic organism", "conditions": "40°C, 20 mM Tris-HCl pH 8.0", "text": "(§1) HPLC substrate reduction, Michaelis-Menten fit on ICCG"}, "[2]": {"substrate": "O=C(OCCO)c1ccc(C(=O)OCCO)cc1", "experiment": "HPLC substrate reduction, Michaelis-Menten fit", "format": "biochemical, unidentified prokaryotic organism", "conditions": "40°C, 20 mM Tris-HCl pH 8.0", "text": "as §1"}, "[3]": {"substrate": "O=C(O)c1ccc(C(=O)OCCO)cc1", "experiment": "HPLC substrate reduction, Michaelis-Menten fit", "format": "biochemical, Pseudideonella sakaiensis", "conditions": "40°C, 20 mM Tris-HCl pH 8.0", "text": "(§2) HPLC substrate reduction, Michaelis-Menten fit on IsPETase"}, "[4]": {"substrate": "O=C(OCCO)c1ccc(C(=O)OCCO)cc1", "experiment": "HPLC substrate reduction, Michaelis-Menten fit", "format": "biochemical, Pseudideonella sakaiensis", "conditions": "40°C, 20 mM Tris-HCl pH 8.0", "text": "as §2"}, "purified protein [5]": {"substrate": "CC(=O)Oc1ccc([N+](=O)[O-])cc1", "experiment": "purified protein", "format": "biochemical, Marinactinospora thermotolerans", "conditions": "30°C, 20 mM Tris-HCl pH 8.0"}, "purified protein [6]": {"substrate": "CCCC(=O)Oc1ccc([N+](=O)[O-])cc1", "experiment": "purified protein", "format": "biochemical, Marinactinospora thermotolerans", "conditions": "30°C, 20 mM Tris-HCl pH 8.0"}, "purified protein [7]": {"substrate": "CCCCCC(=O)Oc1ccc([N+](=O)[O-])cc1", "experiment": "purified protein", "format": "biochemical, Marinactinospora thermotolerans", "conditions": "30°C, 20 mM Tris-HCl pH 8.0"}, "purified protein [8]": {"substrate": "CCCCCCCC(=O)Oc1ccc([N+](=O)[O-])cc1", "experiment": "purified protein", "format": "biochemical, Marinactinospora thermotolerans", "conditions": "30°C, 20 mM Tris-HCl pH 8.0"}, "purified protein [9]": {"substrate": "CCCCCCCCCC(=O)Oc1ccc([N+](=O)[O-])cc1", "experiment": "purified protein", "format": "biochemical, Marinactinospora thermotolerans", "conditions": "30°C, 20 mM Tris-HCl pH 8.0"}, "purified protein [10]": {"substrate": "CCCCCCCCCCCC(=O)Oc1ccc([N+](=O)[O-])cc1", "experiment": "purified protein", "format": "biochemical, Marinactinospora thermotolerans", "conditions": "30°C, 20 mM Tris-HCl pH 8.0"}, "purified protein [11]": {"substrate": "CCCCCCCCCCCCCC(=O)Oc1ccc([N+](=O)[O-])cc1", "experiment": "purified protein", "format": "biochemical, Marinactinospora thermotolerans", "conditions": "30°C, 20 mM Tris-HCl pH 8.0"}, "purified protein [12]": {"substrate": "CCCCCCCCCCCCCCCC(=O)Oc1ccc([N+](=O)[O-])cc1", "experiment": "purified protein", "format": "biochemical, Marinactinospora thermotolerans", "conditions": "30°C, 20 mM Tris-HCl pH 8.0"}, "purified protein [13]": {"substrate": "CCCCCCCCCCCCCCCCCC(=O)Oc1ccc([N+](=O)[O-])cc1", "experiment": "purified protein", "format": "biochemical, Marinactinospora thermotolerans", "conditions": "30°C, 20 mM Tris-HCl pH 8.0"}, "[14]": {"substrate": "O=C(O)c1ccc(C(=O)OCCO)cc1", "experiment": "HPLC substrate reduction, Michaelis-Menten fit", "format": "biochemical, Marinactinospora thermotolerans", "conditions": "40°C, 20 mM Tris-HCl pH 8.0", "text": "(§3) HPLC substrate reduction, Michaelis-Menten fit on MtCut"}, "[15]": {"substrate": "O=C(OCCO)c1ccc(C(=O)OCCO)cc1", "experiment": "HPLC substrate reduction, Michaelis-Menten fit", "format": "biochemical, Marinactinospora thermotolerans", "conditions": "40°C, 20 mM Tris-HCl pH 8.0", "text": "as §3"}},
  "data": [
    {"protein": "B1", "values": [
      {"measurement": "Km", "setting": "[1]", "value": "430 ± 20", "unit": "µM"},
      {"measurement": "kcat", "setting": "[1]", "value": "0.0032 ± 0.0001", "unit": "s⁻¹"},
      {"measurement": "kcat/Km", "setting": "[1]", "value": "6.75 ± 0.32", "unit": "M⁻¹ s⁻¹"},
      {"measurement": "Km", "setting": "[2]", "value": "2580 ± 980", "unit": "µM"},
      {"measurement": "kcat", "setting": "[2]", "value": "2.29 ± 0.95", "unit": "s⁻¹"},
      {"measurement": "kcat/Km", "setting": "[2]", "value": "1000 ± 170", "unit": "M⁻¹ s⁻¹"}
    ]},
    {"protein": "B2", "values": [
      {"measurement": "Km", "setting": "[3]", "value": "720 ± 20", "unit": "µM"},
      {"measurement": "kcat", "setting": "[3]", "value": "0.0139 ± 0.0006", "unit": "s⁻¹"},
      {"measurement": "kcat/Km", "setting": "[3]", "value": "19.2 ± 0.45", "unit": "M⁻¹ s⁻¹"},
      {"measurement": "Km", "setting": "[4]", "value": "4480 ± 540", "unit": "µM"},
      {"measurement": "kcat", "setting": "[4]", "value": "5.95 ± 0.62", "unit": "s⁻¹"},
      {"measurement": "kcat/Km", "setting": "[4]", "value": "1330 ± 20", "unit": "M⁻¹ s⁻¹"}
    ]},
    {"protein": "B3", "values": [
      {"measurement": "Km", "setting": "purified protein [5]", "value": "550 ± 40", "unit": "µM"},
      {"measurement": "kcat", "setting": "purified protein [5]", "value": "4.47 ± 0.28", "unit": "s⁻¹"},
      {"measurement": "kcat/Km", "setting": "purified protein [5]", "value": "8190 ± 340", "unit": "M⁻¹ s⁻¹"},
      {"measurement": "Km", "setting": "purified protein [6]", "value": "1330 ± 150", "unit": "µM"},
      {"measurement": "kcat", "setting": "purified protein [6]", "value": "14.1 ± 1.51", "unit": "s⁻¹"},
      {"measurement": "kcat/Km", "setting": "purified protein [6]", "value": "10600 ± 100", "unit": "M⁻¹ s⁻¹"},
      {"measurement": "Km", "setting": "purified protein [7]", "value": "4610 ± 1040", "unit": "µM"},
      {"measurement": "kcat", "setting": "purified protein [7]", "value": "41.7 ± 6.35", "unit": "s⁻¹"},
      {"measurement": "kcat/Km", "setting": "purified protein [7]", "value": "9230 ± 900", "unit": "M⁻¹ s⁻¹"},
      {"measurement": "Km", "setting": "purified protein [8]", "value": "2550 ± 280", "unit": "µM"},
      {"measurement": "kcat", "setting": "purified protein [8]", "value": "79.4 ± 8.75", "unit": "s⁻¹"},
      {"measurement": "kcat/Km", "setting": "purified protein [8]", "value": "31100 ± 50", "unit": "M⁻¹ s⁻¹"},
      {"measurement": "Km", "setting": "purified protein [9]", "value": "4930 ± 530", "unit": "µM"},
      {"measurement": "kcat", "setting": "purified protein [9]", "value": "69.8 ± 5.15", "unit": "s⁻¹"},
      {"measurement": "kcat/Km", "setting": "purified protein [9]", "value": "14200 ± 500", "unit": "M⁻¹ s⁻¹"},
      {"measurement": "Km", "setting": "purified protein [10]", "value": "1680 ± 120", "unit": "µM"},
      {"measurement": "kcat", "setting": "purified protein [10]", "value": "30.5 ± 3.63", "unit": "s⁻¹"},
      {"measurement": "kcat/Km", "setting": "purified protein [10]", "value": "18100 ± 1200", "unit": "M⁻¹ s⁻¹"},
      {"measurement": "Km", "setting": "purified protein [11]", "value": "190 ± 40", "unit": "µM"},
      {"measurement": "kcat", "setting": "purified protein [11]", "value": "9.87 ± 1.52", "unit": "s⁻¹"},
      {"measurement": "kcat/Km", "setting": "purified protein [11]", "value": "51400 ± 2900", "unit": "M⁻¹ s⁻¹"},
      {"measurement": "Km", "setting": "purified protein [12]", "value": "150 ± 10", "unit": "µM"},
      {"measurement": "kcat", "setting": "purified protein [12]", "value": "4.79 ± 0.12", "unit": "s⁻¹"},
      {"measurement": "kcat/Km", "setting": "purified protein [12]", "value": "32500 ± 1000", "unit": "M⁻¹ s⁻¹"},
      {"measurement": "Km", "setting": "purified protein [13]", "value": "450 ± 20", "unit": "µM"},
      {"measurement": "kcat", "setting": "purified protein [13]", "value": "14.3 ± 0.58", "unit": "s⁻¹"},
      {"measurement": "kcat/Km", "setting": "purified protein [13]", "value": "31800 ± 200", "unit": "M⁻¹ s⁻¹"},
      {"measurement": "Km", "setting": "[14]", "value": "750 ± 110", "unit": "µM"},
      {"measurement": "kcat", "setting": "[14]", "value": "0.13 ± 0.01", "unit": "s⁻¹"},
      {"measurement": "kcat/Km", "setting": "[14]", "value": "176 ± 14", "unit": "M⁻¹ s⁻¹"},
      {"measurement": "Km", "setting": "[15]", "value": "3070 ± 930", "unit": "µM"},
      {"measurement": "kcat", "setting": "[15]", "value": "4.27 ± 1.15", "unit": "s⁻¹"},
      {"measurement": "kcat/Km", "setting": "[15]", "value": "1410 ± 70", "unit": "M⁻¹ s⁻¹"}
    ]}
  ]
}
